For 21 molecules, He/Con_1a and He/Con_2b results are on record in patent publication US20180155451A1 (published 2018).

In assay [1] the target is T1, FcγRIa (human, UniProt P12314 16-292).
T1 construct: extracellular domain; also called FcgRI; 1a; not shown: His tag at the C terminus
In words: SPR (Biacore), captured antibody, soluble FcγR; relative to GpH7-A5/GpH7-B3/GpL16-k0.

In assay [2] the target is T2, FcγRIIb (human, UniProt P31994 43-217).
T2 construct: extracellular domain; also called FcgRIIb; 2b; not shown: His tag at the C terminus
T2 sequence (looked up): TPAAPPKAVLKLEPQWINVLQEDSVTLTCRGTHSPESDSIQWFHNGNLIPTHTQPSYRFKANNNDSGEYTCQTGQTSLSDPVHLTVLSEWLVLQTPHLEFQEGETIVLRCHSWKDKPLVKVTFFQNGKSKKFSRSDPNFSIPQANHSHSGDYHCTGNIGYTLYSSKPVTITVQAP
The description is as above.

For assay [3], the target named is T3, FcγRIa extracellular domain with C-terminal His tag (human, UniProt P12314 16-292).
T3 construct: extracellular domain; soluble receptor expressed in FreeStyle293 cells, used as analyte in Biacore; also called FcgRI; 1a; not shown: His tag attached to the C terminus
Nature of the assay: SPR (Biacore), antibody captured on antigen peptide chip, FcγR as analyte; relative binding.

Assay [4] addresses T4, FcγRIIb extracellular domain with C-terminal His tag (human, UniProt P31994 43-217).
T4 construct: extracellular domain; soluble receptor expressed in FreeStyle293 cells, used as analyte in Biacore; also called FcgRIIb; 2b; not shown: His tag attached to the C terminus
T4 sequence (looked up): T2 sequence (looked up)
Described as above.

T3 sequence (P12314 16-292): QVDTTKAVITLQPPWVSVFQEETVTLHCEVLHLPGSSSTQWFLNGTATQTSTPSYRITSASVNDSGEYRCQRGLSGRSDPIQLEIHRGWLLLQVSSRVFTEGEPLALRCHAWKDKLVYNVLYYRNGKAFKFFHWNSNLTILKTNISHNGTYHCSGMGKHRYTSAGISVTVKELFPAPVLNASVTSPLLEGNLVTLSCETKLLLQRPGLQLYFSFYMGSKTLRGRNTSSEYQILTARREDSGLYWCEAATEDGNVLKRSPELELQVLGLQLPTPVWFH
T1 sequence (P12314 16-292): as above

B1: GpH7-A5/GpH7-B3 variant Y296_12R/GpL16-k0 (antibody, human IgG1, kappa)
heavy 1: not shown
heavy 2: not shown
light: DIVMTQSPLSLPVTPGEPASISCQASESLVHSNRNTYLHWYLQKPGQSPQLLIYKVSNRFSGVPDRFSGSGSGTDFTLKISRVEAEDVGVYYCSQNTHVPPTFGQGTKVEIERTVAAPSVFIFPPSDEQLKSGTASVVCLLNNFYPREAKVQWKVDNALQSGNSQESVTEQDSKDSTYSLSSTLTLSKADYEKHKVYACEVTHQGLSSPVTKSFNRGEC
notes: He Ab: mutation only in the GpH7-B3 H chain; EU numbering; also called He Ab
In the case of B1, in assay [1], the He/Con_1a is 106 relative, HeCon Ab = 100. The He/Con_2b in assay [2] is 79.5 relative, HeCon Ab = 100.

B2: GpH7-A5/GpH7-B3 variant A327_03V/GpL16-k0 (antibody, human IgG1, kappa)
heavy 1: not shown
heavy 2: not shown
light: B1 light
notes: heterodimerized anti-glypican-3 IgG1; alteration in the GpH7-B3 chain only; also called He Ab
In the case of B2, the He/Con_1a in assay [3] is 103 % of control GpH7-A5/GpH7-B3/GpL16-k0 (=100). Moreover, in assay [4], the He/Con_2b is 94.7 % of control GpH7-A5/GpH7-B3/GpL16-k0 (=100).

B3: GpH7-A5/GpH7-B3 variant S298_04F/GpL16-k0 (antibody, human IgG1, kappa)
heavy 1: not shown
heavy 2: not shown
light: B1 light
notes: as for B1
As to B3, the He/Con_1a in assay [1] is 109 relative, HeCon Ab = 100. The He/Con_2b in assay [2] is 65.4 relative, HeCon Ab = 100.

B4: GpH7-A5/GpH7-B3 variant Y296_01G/GpL16-k0 (antibody, human IgG1, kappa)
heavy 1: not shown
heavy 2: not shown
light: B1 light
notes: as for B1
As to B4, the He/Con_1a in assay [1] was 103 relative, HeCon Ab = 100. Also, the He/Con_2b in assay [2] is 79.3 relative, HeCon Ab = 100.

B5: GpH7-A5/GpH7-B3 variant S298_14T/GpL16-k0 (antibody, human IgG1, kappa)
heavy 1: not shown
heavy 2: not shown
light: B1 light
notes: as for B1
With B5, the He/Con_1a in assay [1] was 107 relative, HeCon Ab = 100. For the same molecule, in assay [2], the He/Con_2b was 77.9 relative, HeCon Ab = 100.

B6: GpH7-A5/GpH7-B3 variant S298_01G/GpL16-k0 (antibody, human IgG1, kappa)
heavy 1: not shown
heavy 2: not shown
light: B1 light
notes: as for B1
Take B6: the He/Con_1a in assay [1] is 104 relative, HeCon Ab = 100. In addition, the He/Con_2b in assay [2] is 80.1 relative, HeCon Ab = 100.

B7: GpH7-A5/GpH7-B3 variant S298_18N/GpL16-k0 (antibody, human IgG1, kappa)
heavy 1: not shown
heavy 2: not shown
light: B1 light
notes: as for B1
As for B7, in assay [1], the He/Con_1a is 108 relative, HeCon Ab = 100. In addition, the He/Con_2b in assay [2] was 48.1 relative, HeCon Ab = 100.

B8: GpH7-A5/GpH7-B3 variant A327_13S/GpL16-k0 (antibody, human IgG1, kappa)
heavy 1: not shown
heavy 2: not shown
light: B1 light
notes: as for B2
For B8, in assay [3], the He/Con_1a is 102 % of control GpH7-A5/GpH7-B3/GpL16-k0 (=100). For the same molecule, in assay [4], the He/Con_2b was 79.5 % of control GpH7-A5/GpH7-B3/GpL16-k0 (=100).

B9: GpH7-A5/GpH7-B3 variant Y296_09D/GpL16-k0 (antibody, human IgG1, kappa)
heavy 1: not shown
heavy 2: not shown
light: B1 light
notes: as for B1
In the case of B9, the He/Con_1a in assay [1] is 106 relative, HeCon Ab = 100. In addition, the He/Con_2b in assay [2] was 98.9 relative, HeCon Ab = 100.

B10: GpH7-A5/GpH7-B3 variant Y296_04F/GpL16-k0 (antibody, human IgG1, kappa)
heavy 1: not shown
heavy 2: not shown
light: B1 light
notes: as for B1
Take B10: the He/Con_1a in assay [1] was 104 relative, HeCon Ab = 100. Further, the He/Con_2b in assay [2] is 99.2 relative, HeCon Ab = 100.

B11: GpH7-A5/GpH7-B3 variant S298_07I/GpL16-k0 (antibody, human IgG1, kappa)
heavy 1: not shown
heavy 2: not shown
light: B1 light
notes: as for B1
For the molecule B11, the He/Con_1a in assay [1] is 107 relative, HeCon Ab = 100. The He/Con_2b in assay [2] was 70.6 relative, HeCon Ab = 100.

B12: GpH7-A5/GpH7-B3 variant S298_09D/GpL16-k0 (antibody, human IgG1, kappa)
heavy 1: not shown
heavy 2: not shown
light: B1 light
notes: as for B1
Take B12: the He/Con_1a in assay [1] was 106 relative, HeCon Ab = 100. In addition, the He/Con_2b in assay [2] was 48.3 relative, HeCon Ab = 100.

B13: GpH7-A5/GpH7-B3 variant Y296_16H/GpL16-k0 (antibody, human IgG1, kappa)
heavy 1: not shown
heavy 2: not shown
light: B1 light
notes: as for B1
B13: the He/Con_1a in assay [1] is 106 relative, HeCon Ab = 100. For the same molecule, the He/Con_2b in assay [2] is 92.2 relative, HeCon Ab = 100.

B14: GpH7-A5/GpH7-B3 variant Y296_02A/GpL16-k0 (antibody, human IgG1, kappa)
heavy 1: not shown
heavy 2: not shown
light: B1 light
notes: as for B1
As for B14, the He/Con_1a in assay [1] was 103 relative, HeCon Ab = 100. Besides, in assay [2], the He/Con_2b was 82 relative, HeCon Ab = 100.

B15: GpH7-A5/GpH7-B3 variant Y296_18N/GpL16-k0 (antibody, human IgG1, kappa)
heavy 1: not shown
heavy 2: not shown
light: B1 light
notes: as for B1
On to B15, for which the He/Con_1a in assay [1] is 106 relative, HeCon Ab = 100. For the same molecule, the He/Con_2b in assay [2] was 91.5 relative, HeCon Ab = 100.

B16: GpH7-A5/GpH7-B3 variant Q295_13S/GpL16-k0 (antibody, human IgG1, kappa)
heavy 1: not shown
heavy 2: not shown
light: B1 light
notes: as for B1
On to B16, for which, in assay [1], the He/Con_1a is 102 relative, HeCon Ab = 100. The He/Con_2b in assay [2] is 56.9 relative, HeCon Ab = 100.

B17: GpH7-A5/GpH7-B3 variant Q295_16H/GpL16-k0 (antibody, human IgG1, kappa)
heavy 1: not shown
heavy 2: not shown
light: B1 light
notes: as for B1
Consider B17, for which, in assay [1], the He/Con_1a is 102 relative, HeCon Ab = 100. The He/Con_2b in assay [2] was 62.7 relative, HeCon Ab = 100.

B18: GpH7-A5/GpH7-B3 variant Y296_14T/GpL16-k0 (antibody, human IgG1, kappa)
heavy 1: not shown
heavy 2: not shown
light: B1 light
notes: as for B1
As to B18, in assay [1], the He/Con_1a was 105 relative, HeCon Ab = 100. In addition, the He/Con_2b in assay [2] is 88.2 relative, HeCon Ab = 100.

B19: GpH7-A5/GpH7-B3 variant Y296_13S/GpL16-k0 (antibody, human IgG1, kappa)
heavy 1: not shown
heavy 2: not shown
light: B1 light
notes: as for B1
Consider B19, for which the He/Con_1a in assay [1] is 105 relative, HeCon Ab = 100. For the same molecule, the He/Con_2b in assay [2] is 86.3 relative, HeCon Ab = 100.

B20: GpH7-A5/GpH7-B3 variant A327_06M/GpL16-k0 (antibody, human IgG1, kappa)
heavy 1: not shown
heavy 2: not shown
light: B1 light
notes: as for B2
Take B20: the He/Con_1a in assay [3] was 103 % of control GpH7-A5/GpH7-B3/GpL16-k0 (=100). The He/Con_2b in assay [4] was 59.5 % of control GpH7-A5/GpH7-B3/GpL16-k0 (=100).

B21: GpH7-A5/GpH7-B3 variant Y296_10E/GpL16-k0 (antibody, human IgG1, kappa)
heavy 1: not shown
heavy 2: not shown
light: B1 light
notes: as for B1
For the molecule B21, in assay [1], the He/Con_1a is 106 relative, HeCon Ab = 100. Also, the He/Con_2b in assay [2] is 98 relative, HeCon Ab = 100.
